Results published in a protein production outcome set (Wang et al. 2014).

Test: label from the status in PepcDB records
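Note: failed if final PepcDB status was selected cloned or expressed and not failed if soluble or beyond.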

Row | Sequence | protein production
1 | MYQDRQGVVGGGGGGGSAPHGIILAVVVALVVLVPFFIGDSGEAITDAIAELLSPVGLLLLPIILLLTIQFLSSERGSFVSAIFSTGEPESIHRVSGSPVGVALFLVLILFLLYYRFSIFGGDDGSDD | failed
2 | FGLEGLPKHLKRIPLECLVEAKSYLRQYPQVDSERIGIYGRSKGAELVLAEESIFNDVQCLVLNSPSDVVDEGIIGKWNSHTSSWTHLQKELPYQKFRFRDYLFSKLFRKDFPKDCSARIDIGQMHSPILLLESTVDEIWDASSAIDDIVSHYKGHYITFKKYHETGHMLTVAYQPNHRYRKDWHLLMKESEDSWLATIHFFDRHLK | failed
3 | MGYPPPTRRLGDKKRYHYSNNPNRRHPSAVYSKNSFPKSSNNGFVSSPTADNSTNPSVTPSTASVPLPTAAPGSTFGIEAPRPSRYDPSSVSRPSSSSYSSTRKIGSRYNPDVERSSSTTSSTPESMNTSTITHTNTDIGNSRYSRKTMSRYNPQSTSSTNVTHFPSALSNAPPFYVANGSSRRPRSMDDYSPDVTNKLETNNVSSVNNNSPHSYYSRSNKWRSIGTPSRPPFDNHVGNMTTTSNTNSIHQREPFWKANSTTILKSTHSQSSPSLHTKKFHDANKLDKPEASVKVETPSKDETKAISYHDNNFPPRKSVSKPNAPLEPDNIKVGEEDALGKKEVHKSGREIAKEHPTPVKMKEHDELEARAKKVSKINIDGKQDEIWTTAKTVASAVEVSKESQKELTRSVERKESPEIRDYERAYDPKALKTDVTKLTVDNDNKSYEEPLEKVEGCIFPLPKAETRLWELKNQKRNKIISEQKYLLKKAIRNFSEYPFYAQNKLIHQQATGLILTKIISKIKKEEHLKKINLKHDYFDLQKKYEKECEILTKLSENLRKEEIENKRKEHELMEQKRREEGIETEKEKSLRHPSSSSSSRRRNRADFVDDAEMENVLLQIDPNYKHYQAAATIPPLILDPIRKHSYKFCDVNNLVTDKKLWASRILKDASDNFTDHEHSLFLEGYLIHPKKFGKISHYMGGLRSPEECVLHYYRTKKTVNYKQLLIDKNKKRKMSAAAKRRKRKERSNDEEVEVDESKEESTNTIEKEEKSENNAEENVQPVLVQGSEVKGDPLGTPEKVENMIEQRGEEFAGELENAERVNDLKRAHDEVGEESNKSSVIETNNGVQIMDPKGAVQNGYYPEETKELDFSLENALQRKKHKSAPEHKTSYWSVRESQLFPELLKEFGSQWSLISEKLGTKSTTMVRNYYQRNAARNGWKLLVDETDLKRDGTSSESVQQSQILIQPERPNINAYSNIPPQQRPALGYFVGQPTHGHNTSISSIDGSIRPFGPDFHRDTFSKISAPLTTLPPPRLPSIQFPRSEMAEPTVTDLRNRPLDHIDTLADAASSVTNNQNFSNERNAIDIGRKSTTISNLLNNSDRSMKSSFQSASRHEAQLEDTPSMNNIVVQEIKPNITTPRSSSISALLNPVNGNGQSNPDGRPLLPFQHAISQGTPTFPLPAPRTSPISRAPPKFNFSNDPLAALAAVASAPDAMSSFLSKKENNN | failed
4 | MKPLKEYLLIPTQMRVFETQTQAIETSLSVNAQTSESSEAFTVKKDPHEIKVTGKKSGESELVYDLAGFPIKKTKVHVLPDLKVIPGGQSIGVKLHSVGVLVGFHQINTSEGKKSPGETAGIEAGDIIIEMNGQKIEKMNDVAPFIQKAGKTGESLDLLIKRDKQKIKTKLIPEKDEGEGKYRIGLYIRDSAAGIGTMTFYEPKTKKYGALGHVISDMDTKKPIVVENGEIVKSTVTSIEKGTGGNPGEKLARFSSERKTIGDINRNSPFGIFGTLHQPIQNNISDQALPVAFSTEVKKGPAEILTVIDDDKVEKFDIEIVSTTPQKFPATKGMVLKITDPRLLKETGGIVQGMSGSPIIQNGKVIGAVTHVFVNDPTSGYGVHIEWMLSEAGIDIYGKEKASLEHHHHHH | not failed
5 | MREIIVDNFAGGGGASTGIELAIGRSVDIAINHDPNAVAMHTTNHPDTLHYCESVYSIRPKVATAGRRVGLAWFSPDCRHFSKAKGAKPVEKTIRGLAWIVIRWALDVGPRVMMLENVEEFKTWGPLLAAEMRPDPERVGETFQAFVGMLTTGIPADHPALLECCEFLNISLDSEDAARLVNGLGYTVEYRELRACDYGAPTIRKRFFMVMRRDGQPIVWPEATHGDPKSPAVLAGKLAPWRTAAECIDWSIPAPSIFDRKKPLVENSLKRIARGI | failed
6 | LQTLCDILRADPADSRTLTELGREIGASDRTLSRLFRSELGMTFPQWRTQLRLHHALVLLADSTPVTAVAHLCGWSSASAFIDAFRRTFGHTPGARPRD | failed
7 | MSLTADPPACTVPAAGVSSTHKLVNGGAEKIVFKIKSSNNNEYRIAPVFGFVDPSGSKDVVITRTAGAPKEDKLVVHFASAPADATDAQAAFVAVAPAGTVTIPMSATA | not failed
8 | MYGEGDFYTIKSKRDYEFYLEADRLALGKNCKKPRLIGDDIWKFQRLLRQAEYYSNCQNSLLHKLYLKYILFRFHRMSIRLGFSIPINVFGPGLCIAHRGTIVVNKGARVGENCRIHACTNIGSGRDNIFLAPKIGNGVYIGPGAKIFGSVEIADNIAIGANSVVNRSFYERGISIAGVPAKKISNKGSDGMVIAATKTVSVPVSQETILEHHHHHH | not failed
9 | MEEKANTGQVIIVLTEHLTFGTLLIPYMAEKSDDGTYQLIEQAFHASPEAISRMNEAEQQAIDIASHYTEKYLMGIYSREKTVSRFLRKLSEDPERVKNNIRPFIEKKMQEMLTLIRHHNLPLYQKQVGSKLLYAHHAYHVHPHDVEIRFTFLADETNFRYQLQCYYDGQPLSLSEQKPVIVLTSSPSALLLGMELYFFPHIESVRILPFTKKKKISVPASQIEKYIDNIVIPIARYHEITTQGLNIIEETYACEAVLSLEDTIYDEQMLRLSFRYGDQSFTPDTVTEMKKIIYRNDFGEIFFFRRDSDAEEEKLRMLTDSGLQRVSDVHFKLSPDAPEKTITEWISTYREMLQQSFLLTGNMGNTPYCLDEIRIEQSCDDEPDWFELHITVVIGNLRIPFSRFRKHILEEKREFLLPDGRMILLPEEWFSKYGNLLELGTQTETGIRLKPTFVGAVQSALEENGPKNLLFKREIRNVPVPQGLNAKLRPYQQKGFSWMVQLNKQGFGGCLADDMGLGKTLQTLTLLQYIYKPLSPDAVTAPMKPVFTETTASDSQPDKECTANNPPVREQIADAEGQFSLFSFSSEDELLPDAREIREKNRPKEDDHRQEHGKNSRKPATLIVVPTSLLHNWRREAKRFTTLAIAEYNSNTAFPKGHPEKFFNHFHLIFTTYGMMRNNIDILRSYTFEYIVLDESQNIKNNDSLTFRSVIQLQGKHRIALTGTPIENSLKDLWAQFRFLQPDLLGEESTFHKQFIIPIRQGNVRMEKRLQQIIAPFILRRSKSEVAPELPPLTEETIYCAMSEKQGESYEQEKNSLRNILLQQPENKDRYHMFSILNGILRLRQLACHPQLIFPDFDGVSGKTEQIIDTFDTLRSEGHKVLIFSSFVRHLEILAEVFRQRGWKYALLTGSTNNRPSEIAHFTEQKDVQAFLISLKAGGVGLNLTQADYVFIIDPWWNPAAESQAIARAHRIGQDKQVIAYRFITQNSIEEKILQLQEDKRRLAETFITDSEALPALSNEQWADLLK | failed
10 | VKTWPAPTAPTPVRATVTVPGSKSQTNRALVLAALAAAQGRGASTISGALRSRDTELMLDALQTLGLRVDGVGSELTVSGRIEPGPGARVDCGLAGTVLRFVPPLAALGSVPVTFDGDQQARGRPIAPLLDALRELGVAVDGTGLPFRVRGNGSLAGGTVAIDASASSQFVSGLLLSAASFTDGLTVQHTGSSLPSAPHIAMTAAMLRQAGVDIDDSTPNRWQVRPGPVAARRWDIEPDLTNAVAFLSAAVVSGGTVRITGWPRVSVQPADHILAILRQLNAVVIHADSSLEVRGPTGYDGFDVDLRAVGELTPSVAALAALASPGSVSRLSGIAHLRGHETDRLAALSTEINRLGGTCRETPDGLVITATPLRPGIWRAYADHRMAMAGAIIGLRVAGVEVDDIAATTKTLPEFPRLWAEMVGPGQGWGYPQPRSGQRARRATGQGSGG | not failed
11 | SLTGEESDTLRKIVLEECLPNQQQNQNPSPCAEVKPNAGYVVLKDLNGPLQYLLMPTYRINGTESPLLTDPSTPNFFWLAWQARDFMSKKYGQPVPDRAVSLAINSRTGRTQNHFHIHISCIRPDVREQLDNNLANISSRWLPLPGGLRGHEYLARRVTESELVQRSPFMMLAEEVPEAREHMGSYGLAMVRQSDNSFVLLATQRNLLTLNRASAEEIQDHQCEILR | not failed
12 | MRGWILYKETATQLKPEWYEIERLLAAAKADNIELEVYAPDEFDLTVTREDNKSILLNGQPVELPDFIIPRMGSGTTYFALAIIRHLERLGVYCLNPSKAIEIVKDKLFSQQLLAEKNLPTPKTMLVKFPVDIDLVERHLGFPVVIKTLSGSQGSGVFLSHKAREFDDLMQLIEATNKNANIILQEFIANSHGRDLRVFTIGGRVAGCYERRGQEDSFKANVSAGGSARPFDITPEIEWLATQTANILDLDVAGIDLLFDNGHYKICEANSSPGFEGLESCLNVDIAAQILHFIRIRLGMFNKDEKNSDPQLTHAGPALANNVTSSKAAE | failed
13 | MTQAFSRVRFIMTQPSHPGNVGSAARAIKTMGFGELVLVAPRFPDMTAQPEAVALASGALDVLERAAVHDTLEEALAPVTLAFALTTRVRDLGPPPCDIREAAGLARRHLDDTEAGVVAIVLGTERAGLTNAQIELCHRICHIPANPQYSSLNVAQALQLAAWELRYALLAGTGQSLLPASSAQQANPGAAPADGAAVQALLAHWEQALVAVGFLDPAHPKKLMPRMKHLLTRSALSRDEVDMLRGVCTAMIAPNRPK | not failed
14 | MTNWTEIDEIAKKWIREAGARITQSMHESLTIETKSNPNDLVTNIDKETEKFFIDRIQETFPGHRILGEEGQGDKIHSLEGVVWIIDPIDGTMNFVHQQRNFAISIGIFENGEGKIGLIYDVVHDELYHAFSGRGAYMNETKLAPLKETVIEEAILAINATWVTENRRIDQSVLAPLVKRVRGTRSYGSAALELANVAAGRIDAYITMRLAPWDYAAGCVLLNEVGGTYTTIEGEPFTFLENHSVLAGNPSIHKTIFEEYLHARK | failed
15 | EGAGDALTTVAERARLLADACAGVILHPTAEGGMAIVTASTPDDPDGMVGATIEPGSPVLEQLLGGEPVFVDDSATDPRMTTHVRHRFGPSMMLPLQAGGRLIGTLALPRRRGGRPYTDLERLLATQFASQAALALVLADARRGRELLAVYEDRDRIARDLHDLVV | failed
16 | MNLLRHAVAGLCLVASAGCSGQDVMVRKQSEMETRLEHLHQASTTSGVRLAELSAEVTALRERLAAQGAELEQIKAGQRELQANITERLAQVAPAAGTPSRIEVVSRDGAPREKDGPPDAYLKAFGLYSANNFAGAVEAFQAFLAEHPDSEYAGNALYWIGECHYSRSDLPRALDAFRLVAERYPASTKVPDALLKSGYTLYAMKEPERAREILESLAAKYPRSPAAAKARERLAVATPKKQ | failed
17 | MSRVHNRALSAAELQSFGDELDAIRARVLSQVGAADARYIRRIVAAVRWTGVAGRALLFLGAFVHSVLIPAWIAGVLLLALSKILENMELGHNVMHGQYDWMGDPQLNGNTYEWDIVATGDNWRKTHNFKHHTYTNVRGMDDDIGYGLLRIFPEQRWRPFYLLQPFIAVVFALLFEWGVAIQDLRLGRWFAGKMKAAELRASFLPVGRKMGRQMLKDYIVFPLLAGPFFLTVLLGNLAANVLRSIWTFVIIFCGHFTADAEVFPKESIRNESRGHWYLRQLRGSSNLTGGKLMNVLSGNLSHQIEHHFYPDLPANRYAQIAVEVKQVCARYGQHYNTGSLPRQFGQVMWRIVRHAFPSRPKPVRQGSGALQSA | failed
18 | MAIQKGDFIKLNYTGRFEDGRIFDTTDEELAKKEEIFNPRGLYGGDVVIVGAGHTIEGLDEDLEGKEAGYSSTVTIPPEKAFGLSNSKLVETVSITKFQDRNVHPGLPVELEGKRGVVSRVIGRKVTVDFNSPLAGKTVSYEYTIEKLLEDDVEMIQGLLALYTGMRDMEVEITDGVAKIYVPTGLTFNQRWLMAKNRVVSELFKYAGLKEVQLIEKLTAEAEAPVPAEPEVEAEAEAEAEVEAEVKEETSESHE | failed
